Seven molecules from patent publication US20150093336A1 (VIB VZW, published 2015) can be followed below.

As usually defined, the Kd is the constant that tells how readily two partners part at equilibrium. As a reminder, the koff is a measure of how fast the partners let go of each other. For orientation: kon means the rate constant with which the complex forms.

B1: NbhmMMRm18.63 (VHH)
VHH: QVQLQESGGGLVQPGGSLRLSCAPSGSIISINAMAWYRQAPGKERELVAAISSGGSTYYADSVKGRFTISGDIAKNLLWLQMNSLKPEDTAMYYCAPGGGWRPGAWGQGTQVTVSS
notes: Only tested as periplasmic extract in PE-ELISA; clone carries C-terminal HA and 6xHis tag
B2: NbhmMMRm8.67 (VHH)
VHH: QVQLQESGGGLVQAGDSLRLSCLATGSMFSINAWGWYRQAPGKQRELVASITSGGGSTEYAESVKGRFTISRDSAKNMLYLQMNSLRPEDTAVYYCNAERWDGYALGYSPNHGSGHRPYNYWGQGTQVTVSS
notes: as for B1
B3: NbhmMMRm27.95 (VHH)
VHH: QVQLQESGGRLGAAGGSLRLSCTASGFPFNIYPMSWVRQAPGKGFEWVSYISHGGTTTDYSDAVKGRFTISRDNAKNRLYLQMDSLKPEDTAVYFCAQGYARLMTDSELVRGQGTQVTVSS
notes: as for B1
B4: NbhmMMRm25.86 (VHH)
VHH: QVQLQESGGGLVQPGGSLRLSCAGSGFTVSTSMINWARQVPGKELEWLVDVLPSGSTYYADPVKGRFTISRDNAQNTIYLQMNYLKPEDTAIYYCAINRETMPPFRGQGTQVTVSS
notes: as for B1
B5: NbhmMMRm13.89 (VHH)
VHH: QVQLQESGGGLVQPGGSLRLSCAASGSIFSINAWGWYRQAPGKQRELVAEITSSGSTNYADSVKGRFTISGDNAKNSVYLHMNNLEPEDTAVYYCKAVAVTFTTPRSDYWGRGTQVTVSS
notes: as for B1
B6: NbhMMRm16.95 (VHH)
VHH: QVQLQESGGGLVQPGGSLGLSCAASGRIASISAMGWYRQAPGKQRELVAAITGSGRTNYADSVKGRFTISRDNAKNTVYLQMNSLKPEDTAVYYCNLLMVDYGLGLGTDYWGQGTQVTVSS
notes: Produced from pMECS with C-terminal HA and 6xHis tag
B7: NbhMMRm12.6 (VHH)
VHH: QVQLQESGGGLVQPGGSLRLSCVVSGSFLSINHMGWYRQVSGEQRELVAAITSGGSTNYADSVKGRFTISRDSAKNTVYLQMNSLKPEDTAVYYCNADALTMLPPFDFWGQGTQVTVSS
notes: as for B6

In one assay the target is T1, Recombinant mouse MMR (R&D systems) (mouse, UniProt Q61830 20-1388).
T1 construct: Antigen of the PE-ELISA and the SPR; also called mMMR; recombinant mMMR
T1 sequence: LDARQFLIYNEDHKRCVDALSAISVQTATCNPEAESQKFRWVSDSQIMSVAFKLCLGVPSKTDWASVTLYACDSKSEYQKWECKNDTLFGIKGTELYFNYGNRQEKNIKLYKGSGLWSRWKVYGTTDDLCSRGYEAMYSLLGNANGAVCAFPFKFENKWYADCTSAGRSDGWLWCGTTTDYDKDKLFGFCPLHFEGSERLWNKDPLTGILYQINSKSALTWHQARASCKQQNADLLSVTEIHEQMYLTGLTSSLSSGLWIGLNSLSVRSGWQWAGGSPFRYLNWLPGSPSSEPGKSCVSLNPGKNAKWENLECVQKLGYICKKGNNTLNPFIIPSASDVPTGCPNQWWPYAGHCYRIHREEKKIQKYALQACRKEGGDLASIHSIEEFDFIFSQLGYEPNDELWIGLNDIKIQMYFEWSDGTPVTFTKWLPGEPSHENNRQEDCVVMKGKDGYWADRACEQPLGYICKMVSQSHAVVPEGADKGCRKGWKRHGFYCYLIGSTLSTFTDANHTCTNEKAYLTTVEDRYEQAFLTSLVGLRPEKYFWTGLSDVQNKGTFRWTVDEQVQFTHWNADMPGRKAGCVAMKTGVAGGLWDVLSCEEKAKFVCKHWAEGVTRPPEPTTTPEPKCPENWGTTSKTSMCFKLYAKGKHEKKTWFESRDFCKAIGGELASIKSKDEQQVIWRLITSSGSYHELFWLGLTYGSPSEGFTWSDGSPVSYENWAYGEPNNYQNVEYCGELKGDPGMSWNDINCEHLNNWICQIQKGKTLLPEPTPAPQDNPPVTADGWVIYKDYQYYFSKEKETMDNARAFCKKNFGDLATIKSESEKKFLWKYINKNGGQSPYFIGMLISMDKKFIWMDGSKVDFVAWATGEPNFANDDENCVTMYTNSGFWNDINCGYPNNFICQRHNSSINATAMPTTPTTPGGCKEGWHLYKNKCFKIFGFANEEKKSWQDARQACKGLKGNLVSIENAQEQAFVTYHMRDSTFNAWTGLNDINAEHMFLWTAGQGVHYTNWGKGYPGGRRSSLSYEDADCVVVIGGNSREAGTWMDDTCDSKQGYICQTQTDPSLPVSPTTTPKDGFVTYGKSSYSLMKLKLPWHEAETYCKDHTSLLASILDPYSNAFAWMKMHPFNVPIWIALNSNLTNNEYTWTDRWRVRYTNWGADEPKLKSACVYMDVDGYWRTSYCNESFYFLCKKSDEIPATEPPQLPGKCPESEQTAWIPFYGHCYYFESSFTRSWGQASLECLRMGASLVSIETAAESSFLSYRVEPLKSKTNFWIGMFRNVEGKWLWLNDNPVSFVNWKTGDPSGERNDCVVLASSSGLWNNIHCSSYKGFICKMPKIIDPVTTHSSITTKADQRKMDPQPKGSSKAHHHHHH
Description: PE-ELISA: periplasmic extract of the clone on plate-coated mouse MMR, OD405; background = irrelevant milk-blocking proteins. The method, then: (§1) Specific sdAb phages were enriched by several consecutive rounds of in vitro selection on antigen coated to wells of microtiter plates (Nunc). For isolation of human/mouse MMR cross-reactive Nbs, screening was performed using human and mouse MMR alternatingly. Bound phage particles were eluted with 100 mM triethylamine (pH 11.0), immediately neutralized with 1 M Tris-HCl (pH 7.4) and used to infect E. coli TG1 cells. Individual colonies were picked and expression of recombinant sdAb-M13 protein III by addition of 1 mM isopropyl-β-D-thiogalac-topyranoside (IPTG). The periplasmic extract of each clone was subsequently tested in ELISA for human MMR recognition with non-specific antigen coated wells serving as a negative control. Human/mouse MMR cross-reactive Nbs were also screened in a similar fashion against mouse MMR, only clones reactive with both human and mouse antigens were withheld as cross-reactive Nbs. Each ELISA was performed on plates coated with 1 μg/ml MMR in 100 mM NaHCO₃ buffer pH=8.8. After coating the plates are washed with PBS+0.05% TWEEN®-20 (PBST) and blocked for 2 hours with PBS+0.05% TWEEN® 20+2% non-fat dry milk powder (Nestle) (PBSM). The PE extracts are then incubated for 1 hour on the plate and then washed with PBST followed by 1 hour incubation of 0.5 μg/ml mouse anti-HA tag antibody (16B12, Covance) in PBSM. After washing with PBST, 1.5 μg/ml alkaline phosphatase conjugated anti-mouse antibody (Sigma) in PBSM in added to the plate for 1 hour followed by PBST washing. Finally, the ELISA is developed using 2 mg/ml alkaline phosphatase substrate (Sigma) in AP-buffer (100 mM NaCl, 50 mM MgCl₂, 100 mM Tris pH=9.5) and the optical density signal at 405 nm is measured.
(§2) Next, anti-human/mouse MMR cross-reactive sdAbs were generated (see also Material and Method section). The anti-human/anti mouse MMR phage bank was alternatingly screened on human and mouse MMR for a total of four rounds, resulting in up to 100-fold enrichments for hMMR/mMMR reactive phages from the second panning round. Therefore, 188 colonies from the second and third rounds were selected for PE-expression. These PE-extracts were used in PE-ELISAs to determine which clones react effectively to MMR, clones were selected after the ELISA on hMMR (FIG. 2). These clones were then screened for binding on mouse MMR (FIG. 3).
Background: ELISA stands for enzyme-linked immunosorbent assay.
As to B1, the binding result was “binds”.
On the same count and under the same terms, the result for B2 reads “binds”; that for B3, “binds”; that for B4, “binds”.
For the molecule B5, the binding result was “binds”.

A further assay addresses T2, Recombinant human MMR (R&D systems) (human, UniProt P22897 19-1383).
T2 construct: Antigen of the PE-ELISA and the SPR; also called hMMR; recombinant hMMR
T2 sequence: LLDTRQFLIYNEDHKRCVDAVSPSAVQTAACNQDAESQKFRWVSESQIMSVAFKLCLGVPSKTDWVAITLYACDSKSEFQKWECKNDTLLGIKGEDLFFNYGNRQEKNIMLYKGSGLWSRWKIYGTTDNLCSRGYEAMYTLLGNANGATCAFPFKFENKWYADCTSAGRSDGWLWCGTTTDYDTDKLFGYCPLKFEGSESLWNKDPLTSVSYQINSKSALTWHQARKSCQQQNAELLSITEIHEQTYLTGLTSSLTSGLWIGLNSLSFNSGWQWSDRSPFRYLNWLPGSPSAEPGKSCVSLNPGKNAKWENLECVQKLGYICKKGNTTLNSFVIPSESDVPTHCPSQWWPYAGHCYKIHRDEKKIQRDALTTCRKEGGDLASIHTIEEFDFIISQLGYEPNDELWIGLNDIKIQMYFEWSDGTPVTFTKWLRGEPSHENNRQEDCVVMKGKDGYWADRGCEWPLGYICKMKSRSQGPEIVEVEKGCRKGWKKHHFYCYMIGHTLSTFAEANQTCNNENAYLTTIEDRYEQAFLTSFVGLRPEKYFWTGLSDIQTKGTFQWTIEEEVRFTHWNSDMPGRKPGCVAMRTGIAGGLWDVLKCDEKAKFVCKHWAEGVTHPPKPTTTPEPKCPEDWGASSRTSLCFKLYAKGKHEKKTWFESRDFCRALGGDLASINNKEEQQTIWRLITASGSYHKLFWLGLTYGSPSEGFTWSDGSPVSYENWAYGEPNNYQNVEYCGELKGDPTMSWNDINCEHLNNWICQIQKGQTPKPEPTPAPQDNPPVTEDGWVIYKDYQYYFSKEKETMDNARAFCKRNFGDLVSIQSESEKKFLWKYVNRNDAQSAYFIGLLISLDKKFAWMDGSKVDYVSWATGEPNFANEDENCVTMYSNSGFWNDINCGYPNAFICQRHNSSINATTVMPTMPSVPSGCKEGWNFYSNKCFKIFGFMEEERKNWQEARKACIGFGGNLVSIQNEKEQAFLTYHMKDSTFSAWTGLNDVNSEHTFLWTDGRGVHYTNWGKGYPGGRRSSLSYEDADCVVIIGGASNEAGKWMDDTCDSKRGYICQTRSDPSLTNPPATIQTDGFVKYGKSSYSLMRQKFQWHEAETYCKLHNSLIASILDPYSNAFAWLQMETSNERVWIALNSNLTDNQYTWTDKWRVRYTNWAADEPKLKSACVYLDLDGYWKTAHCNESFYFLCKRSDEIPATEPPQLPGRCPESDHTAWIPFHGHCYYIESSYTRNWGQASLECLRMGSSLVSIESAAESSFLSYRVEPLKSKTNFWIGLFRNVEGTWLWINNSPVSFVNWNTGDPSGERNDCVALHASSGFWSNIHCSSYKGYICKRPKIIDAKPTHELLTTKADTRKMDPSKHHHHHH
The assay is described as follows: PE-ELISA: periplasmic extract of the clone on plate-coated human MMR, OD405; background = irrelevant milk-blocking proteins. The procedure:
as §1, §2
With B1, the binding result was “binds”.
With B2, the binding result was “binds”.
Same read-out and setting: next, B3: “binds”; B4: “binds”; B5: “binds”.

For a further assay, the target named is T1, Recombinant mouse MMR (R&D systems). The assay is described as follows: SPR, BIAcore T100; mouse MMR on CM5 chip, sdAb as analyte. The procedure: (§3) Affinity analysis was performed using a BIAcore™ T100 (GE Healthcare) with HEPES-buffered saline running buffer (10 mM HEPES with 0.15 M NaCl, 3.4 mM EDTA and 0.005% surfactant P20 at pH 7.4). MRR was immobilized on a CM5 chip in acetate buffer 50 mM (pH 5.0), resulting in 2100 RU MMR coated on the chip. A second channel on the same chip was activated/deactivated in a similar way and served as a negative control. The MMR sdAbs were used as analytes in eleven different concentrations, ranging from 1 to 2000 nM, at a flow rate of […]. Glycine-HCl 50 mM (pH 2.0) was used for elution. The kinetic and equilibrium parameters (kd, ka and KD) values were calculated from the combined sensogram of all concentrations using BIAcore™ T100 evaluation software 2.02 (GE Healthcare).
(§4) The binding characteristics and affinity of selected Nbs towards the recombinant hMMR and recombinant mMMR antigen was examined in further detail using surface plasmon resonance. A combined sensogram was recorded for each Nb (example for NbhmMMRm3.49 in FIG. 5) and the kinetic and equilibrium parameters (kd, ka and KD) values were calculated (Table 4 and Table 5). Most but not all results on binding to mouse or human rMMR obtained via this SPR analysis are in agreement with the results obtained by PE-ELISA.
For orientation: SPR reads the build-up and loss of mass on a sensor chip optically.
As for B6, the binding result is “no binding (tested: analyte 1 to 2000 nM)”.
B7: the binding result is given as “no binding (tested: analyte 1 to 2000 nM)”.

For the next assay, the target named is T2, Recombinant human MMR (R&D systems). Description: SPR, BIAcore T100; human MMR on CM5 chip, sdAb as analyte. The method, then:
as §3, §4
As for B6, the Kd came to 21 nM, the koff stood at 0.0014 s⁻¹ and the kon was 66000 M⁻¹ s⁻¹.
For B7, in that order: 8.2 nM, 0.0012 s⁻¹ and 150000 M⁻¹ s⁻¹.
